Test results as given in the supplement of paper PMC10567573.

B1: FEM1A (parent)
chain: NIVEYLIQEQPGQEQVAGGEAQPG

Variants of: B1
Test: protein stability index of a GFP-peptide fusion (GPS, HEK-293T) (PSI 1-6); higher = more stable
Details: c terminus: a fixed tail appended
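Note: lentivirally expressed fusions sorted by FACS into six bins by GFP to DsRed ratio, PSI derived from sequencing read proportions per bin multiplied by bin number.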

Variant | protein stability index
E4V | 1.82
E4G | 4.16
E4M | 2
E4S | 3.64
E4Q | 3.95
E4C | 3.11
E4N | 4.22
E4A | 3.48
E4W | 2.52
E4T | 4.6
E4Y | 2.31
E4F | 2.4
E4L | 1.92
E4K | 4.11
E4D | 4.79
E4I | 1.86
E4R | 3.48
E4H | 3.56
E4P | 4.76
A17W | 2.73
A17K | 4.19
A17E | 4.6
A17M | 3.96
A17V | 3.68

Variant | protein stability index
A17Q | 4.07
A17Y | 3.68
A17G | 4.71
A17D | 4.97
A17N | 5.16
A17P | 4.24
A17R | 3.5
A17I | 3.87
A17H | 4.38
A17F | 3.59
A17L | 3.33
A17T | 3.91
A17C | 3.37
A17S | 4.72
I7V | 4.43
I7E | 5.3
I7A | 5.14
I7Q | 5.3
I7N | 5.3
I7T | 4.65
I7H | 4.74
I7F | 4.14
I7P | 5.71
I7Y | 4.33

Variant | protein stability index
I7D | 5.39
I7S | 4.75
I7K | 5.17
I7L | 3.69
I7C | 4.78
I7G | 4.55
I7W | 3.95
I7M | 4.25
I7R | 4.92
V3F | 4.21
V3G | 5.37
V3R | 5.21
V3N | 5.01
V3W | 3.67
V3I | 3.91
V3Y | 4.33
V3L | 3.07
V3Q | 4.57
V3K | 5.05
V3T | 4.81
V3S | 5.49
V3M | 4.2
V3P | 5.74
V3H | 5.06

Variant | protein stability index
Q8S | 4.09
Q8I | 3.18
Q8E | 4.7
Q8C | 3.36
Q8F | 2.94
Q8H | 3.93
Q8L | 4.39
Q8W | 3.33
Q8N | 4.42
Q8T | 4.88
Q8A | 4.46
Q8P | 4.71
Q8Y | 3.36
Q8G | 4.26
Q8K | 4.06
Q8R | 3.11
Q8V | 3.34
Q8D | 4.89
Q8M | 3.66
Y5W | 2.18
Y5K | 5.31
Y5R | 4.54
Y5G | 5.7
Y5E | 5.66

Variant | protein stability index
Y5D | 5.67
Y5P | 5.82
Y5T | 5.44
Y5F | 3.56
Y5L | 4.03
Y5A | 5.18
Y5H | 4.93
Y5S | 4.83
Y5M | 3.95
Y5V | 4.49
Y5C | 4.74
Y5I | 3.98
Y5Q | 5.08
Y5N | 4.83
V16Y | 4.05
V16M | 4.68
V16K | 4.29
V16N | 3.87
V16S | 3.86
V16C | 4.02
V16I | 3.86
V16G | 4.6
V16T | 4.42
V16W | 3.81

Variant | protein stability index
V16L | 3.94
V16Q | 4.3
V16P | 4.29
V16R | 4.2
V16E | 4.35
V16F | 3.03
V16A | 4.52
V16H | 4.36
V16D | 4.16
Q13H | 4.04
Q13S | 3.85
Q13A | 4.02
Q13T | 3.94
Q13I | 3.35
Q13D | 4.11
Q13V | 4.06
Q13Y | 3.72
Q13P | 4.26
Q13R | 3.79
Q13W | 3.18
Q13E | 4.79
Q13K | 4.48
Q13F | 3.78
Q13G | 4.18

Variant | protein stability index
Q13M | 3.86
Q13N | 4.42
Q13L | 3.27
P11Q | 3.69
P11H | 3.6
P11V | 3.28
P11Y | 2.65
P11W | 2.13
P11D | 4.47
P11G | 3.89
P11R | 3.42
P11N | 3.8
P11E | 4.27
P11S | 3.96
P11M | 2.6
P11T | 3.88
P11K | 3.74
P11C | 3.11
P11A | 3.98
P11F | 2.75
P11L | 2.21
P11I | 2.65
G18W | 3.12
G18T | 4.2

Variant | protein stability index
G18D | 5.01
G18S | 3.78
G18N | 4.16
G18E | 4.9
G18F | 2.94
G18K | 3.75
G18C | 3.8
G18V | 3.61
G18L | 3.54
G18Y | 3.36
G18M | 4.31
G18Q | 4.7
G18R | 4.15
G18I | 3.85
G18P | 4.3
G18H | 4.47
G18A | 4.2
E20M | 3.13
E20H | 4.1
E20Q | 3.9
E20K | 4.25
E20T | 3.63
E20I | 3.53
E20A | 3.89

Variant | protein stability index
E20G | 4.38
E20F | 3.46
E20V | 3.49
E20R | 3.79
E20L | 3.54
E20C | 3.68
E20S | 3.41
E20N | 3.73
E20D | 4.59
E20P | 3.79
Q10C | 3.83
Q10I | 3.75
Q10Y | 3.09
Q10H | 3.88
Q10W | 2
Q10E | 4.62
Q10V | 3.22
Q10L | 3.43
Q10A | 4.34
Q10N | 4.27
Q10S | 4.53
Q10D | 4.37
Q10F | 3.16
Q10T | 3.69

Variant | protein stability index
Q10K | 4.3
Q10R | 4.03
Q10M | 3.21
Q10P | 4.54
Q15H | 4.02
Q15T | 3.17
Q15S | 4.52
Q15N | 4.56
Q15G | 4.78
Q15Y | 3.67
Q15W | 3.22
Q15F | 3.24
Q15E | 4.79
Q15L | 3.53
Q15A | 4.2
Q15D | 4.08
Q15C | 4.19
Q15M | 3.78
Q15R | 3.78
Q15V | 3.66
Q15I | 4.08
Q15K | 3.91
Q15P | 4.32
G19Y | 3.47

Variant | protein stability index
G19C | 4.06
G19K | 4.22
G19A | 4.24
G19D | 4.75
G19L | 3.6
G19I | 3.23
G19E | 5.05
G19M | 3.72
G19N | 4.43
G19V | 3.96
G19T | 4.18
G19Q | 4.09
G19R | 3.66
G19H | 4.04
G19W | 2.99
G19S | 4.65
G19F | 3.31
G19P | 4.16
E14Y | 2.69
E14T | 4.21
E14L | 3.06
E14F | 2.62
E14M | 3.34
E14C | 3.38

Variant | protein stability index
E14D | 4.39
E14H | 3.48
E14S | 3.21
E14V | 2.61
E14G | 3.84
E14Q | 3.33
E14N | 3.54
E14I | 3.25
E14A | 4.06
E14W | 2.25
E14K | 3.85
E14P | 3.73
E14R | 3.37
G12K | 4.19
G12M | 4.03
G12I | 3.86
G12Q | 4.61
G12C | 4.03
G12E | 4.73
G12A | 3.83
G12T | 3.87
G12F | 3.09
G12S | 4.65
G12V | 3.95

Variant | protein stability index
G12D | 4.69
G12P | 4.87
G12W | 2.89
G12H | 4.24
G12Y | 3.12
G12L | 3.44
G12N | 4.5
G12R | 2.94
L6A | 5.36
L6T | 5.59
L6I | 4.63
L6S | 5.45
L6N | 5.71
L6M | 4.5
L6K | 5.42
L6G | 5.51
L6C | 5.11
L6H | 5.61
L6F | 4.71
L6P | 5.7
L6V | 5.11
L6D | 5.26
L6Y | 5.11
L6E | 5.82

Variant | protein stability index
L6R | 5.16
L6W | 4.44
L6Q | 5.35
E9Q | 3.52
E9I | 2.3
E9L | 2.27
E9H | 2.95
E9W | 2.45
E9C | 3
E9V | 2.06
E9P | 3.71
E9S | 3.36
E9M | 3.35
E9D | 4.49
E9T | 3.15
E9N | 3.38
E9Y | 2.42
E9R | 2.88
E9K | 3.71
E9G | 3.71
E9F | 2.79
E9A | 2.91
